Reference: patent publication US20260274922A1, “SYNTHETIC ESTROGEN RECEPTOR (ER)-DERIVED PEPTIDE” (THE TEXAS A&M UNIVERSITY SYSTEM, priority 2023, published 2026)
Where no end group is shown, it is not given here. The star is where a group is joined. FITC = O=C1OC2(c3ccc(O)cc3Oc3cc(O)ccc32)c2ccc(NC(=S)*)cc21

How the values were obtained:
IRS1 [1] = biological target: T1, IRS1 (Mus musculus, UniProt P35569); experiment: Effect of AF1 peptide on IRS1 phosphorylation at S302 in primary mouse hepatocytes (Western blot); assay type: cell-based; conditions: WT primary hepatocytes
T1 construct: increased IRS1 protein levels by 50% (p<0.05) in WT primary hepatocytes; endogenous in cells; host or cells: primary mouse hepatocytes (C57BL/6J background; WT, ERα F/F or ERα LivKO)
T1 sequence (P35569 1-1233): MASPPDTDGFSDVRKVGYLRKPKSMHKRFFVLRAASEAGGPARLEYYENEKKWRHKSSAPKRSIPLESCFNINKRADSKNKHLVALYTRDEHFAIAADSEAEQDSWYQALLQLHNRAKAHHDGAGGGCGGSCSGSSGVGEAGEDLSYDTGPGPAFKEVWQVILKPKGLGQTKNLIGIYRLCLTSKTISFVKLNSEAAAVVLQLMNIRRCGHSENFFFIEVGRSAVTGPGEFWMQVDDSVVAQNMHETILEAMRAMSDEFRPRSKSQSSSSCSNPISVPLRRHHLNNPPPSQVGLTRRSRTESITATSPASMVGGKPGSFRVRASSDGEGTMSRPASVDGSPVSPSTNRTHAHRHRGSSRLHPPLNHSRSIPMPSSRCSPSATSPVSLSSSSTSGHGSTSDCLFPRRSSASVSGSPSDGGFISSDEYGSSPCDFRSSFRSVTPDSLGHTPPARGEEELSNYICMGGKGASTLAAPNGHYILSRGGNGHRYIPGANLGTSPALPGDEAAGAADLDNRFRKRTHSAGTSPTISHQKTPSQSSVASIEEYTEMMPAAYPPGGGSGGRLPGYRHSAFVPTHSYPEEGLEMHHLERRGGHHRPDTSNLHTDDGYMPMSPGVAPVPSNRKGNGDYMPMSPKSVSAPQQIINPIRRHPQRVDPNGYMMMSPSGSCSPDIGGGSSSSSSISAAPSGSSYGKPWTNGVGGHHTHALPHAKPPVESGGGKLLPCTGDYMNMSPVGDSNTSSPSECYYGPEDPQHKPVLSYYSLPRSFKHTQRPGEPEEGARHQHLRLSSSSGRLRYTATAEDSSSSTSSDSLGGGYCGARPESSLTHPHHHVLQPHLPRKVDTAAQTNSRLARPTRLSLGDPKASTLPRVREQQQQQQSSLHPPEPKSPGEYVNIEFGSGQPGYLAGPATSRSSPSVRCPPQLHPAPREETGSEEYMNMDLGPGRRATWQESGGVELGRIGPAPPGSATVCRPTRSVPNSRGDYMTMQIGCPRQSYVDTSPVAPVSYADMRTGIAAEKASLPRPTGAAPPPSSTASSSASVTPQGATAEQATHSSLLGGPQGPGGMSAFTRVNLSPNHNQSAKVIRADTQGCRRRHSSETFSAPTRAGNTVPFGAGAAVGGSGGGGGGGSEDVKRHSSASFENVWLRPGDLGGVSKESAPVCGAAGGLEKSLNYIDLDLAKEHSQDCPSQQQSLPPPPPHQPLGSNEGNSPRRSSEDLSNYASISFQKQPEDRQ
Description: Primary hepatocytes isolation and cell culture. Primary hepatocytes were isolated. Male mice at age of 8-12 weeks were infused with a perfusion buffer A (calcium and magnesium-free HBSS supplemented with 10 mM HEPES, […], 1 mM glucose, and 1% penicillin-streptomycin, pH 7.4) through portal vein for 6-8 min. Then perfusion buffer A was changed to buffer B (calcium and magnesium-free HBSS supplemented with 10 mM HEPES, 1 mM CaCl2), 1 mM glucose, 1% penicillin-streptomycin, and 0.5 mg/mL collagenase II, pH 7.4). […] Liver cells were suspended and passed through a 70 μm cell strainer, followed by centrifuge at 1700 rpm for 2 min. Pellets were resuspended with Percoll at final concentration of 36% and centrifuged at 1800 rpm for 6 min. The hepatocyte pellet was washed and suspended with DMEM supplemented with 10% FBS and 1% penicillin-streptomycin in collagen-coated plates. The HepG2 cell line was purchased from Abcam and cultured with DMEM medium supplemented with 10% FBS and 1% penicillin-streptomycin in collagen-coated plates. The human embryo kidney (HEK) 293 cell line was purchased from Sigma and cultured with DMEM medium supplemented with 10% FBS and 1% penicillin-streptomycin. FBS-free DMEM medium was used to culture cells during the experiments.
(§1) Co-immunoprecipitation and Western blotting analysis. […] Protein bands were detected using a ChemiDoc image system.

IRS1 [2] = biological target: T2, IRS1 (Homo sapiens, UniProt P35568); experiment: Effect of AF1 peptide on IRS1 ubiquitination in HEK293T cells; assay type: cell-based
T2 sequence (P35568 1-1242): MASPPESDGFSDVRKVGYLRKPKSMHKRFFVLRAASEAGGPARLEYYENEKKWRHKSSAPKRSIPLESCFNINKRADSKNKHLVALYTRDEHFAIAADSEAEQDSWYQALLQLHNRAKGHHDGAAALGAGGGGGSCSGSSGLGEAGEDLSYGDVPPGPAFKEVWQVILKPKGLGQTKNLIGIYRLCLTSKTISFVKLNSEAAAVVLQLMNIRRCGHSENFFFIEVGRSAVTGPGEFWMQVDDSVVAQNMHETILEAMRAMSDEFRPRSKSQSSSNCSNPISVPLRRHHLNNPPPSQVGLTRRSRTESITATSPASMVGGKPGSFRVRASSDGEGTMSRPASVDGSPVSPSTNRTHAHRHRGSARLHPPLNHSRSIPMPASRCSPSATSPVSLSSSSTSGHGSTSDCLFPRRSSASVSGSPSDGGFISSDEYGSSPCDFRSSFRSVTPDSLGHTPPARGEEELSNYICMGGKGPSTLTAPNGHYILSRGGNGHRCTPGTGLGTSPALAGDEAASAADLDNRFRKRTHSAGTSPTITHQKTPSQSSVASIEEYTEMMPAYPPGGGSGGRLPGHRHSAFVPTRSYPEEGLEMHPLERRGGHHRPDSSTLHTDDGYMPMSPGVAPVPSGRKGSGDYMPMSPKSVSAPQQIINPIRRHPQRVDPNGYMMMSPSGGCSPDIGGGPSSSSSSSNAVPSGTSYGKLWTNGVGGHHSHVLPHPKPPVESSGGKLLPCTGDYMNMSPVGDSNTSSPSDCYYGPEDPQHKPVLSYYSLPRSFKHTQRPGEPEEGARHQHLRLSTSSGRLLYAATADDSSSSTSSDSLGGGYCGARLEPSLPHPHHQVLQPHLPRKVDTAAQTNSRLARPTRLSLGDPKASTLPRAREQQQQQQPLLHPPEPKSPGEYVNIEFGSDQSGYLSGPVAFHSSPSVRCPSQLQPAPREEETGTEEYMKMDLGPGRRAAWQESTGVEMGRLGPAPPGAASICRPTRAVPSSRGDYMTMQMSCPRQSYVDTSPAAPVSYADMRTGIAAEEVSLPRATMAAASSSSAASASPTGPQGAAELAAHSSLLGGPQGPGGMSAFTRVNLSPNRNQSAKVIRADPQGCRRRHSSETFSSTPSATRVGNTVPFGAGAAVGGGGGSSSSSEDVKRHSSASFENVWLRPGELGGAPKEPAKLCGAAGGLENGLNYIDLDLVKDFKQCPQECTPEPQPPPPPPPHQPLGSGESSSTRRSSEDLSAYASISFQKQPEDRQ
From the text: as §1

“YGRKKRRQRRRTKASGMALLHEPLNRPQLKIPLERDSSKPAVYNY ({FITC}-YGRKKRRQRRRTKASGMALLHEPLNRPQLKIPLERDSSKPAVYNY) [AF1 peptide]” was tested. Which “decrease in pIRS1-S302” value (IRS1 [1]) did it give?
Its value is 75%.

What about the “increase in IRS1 protein levels” value (IRS1 [1]; FIG. 6G) of the same sequence?
Its value is 50%.

What about the “ubiquitination of IRS1” value (IRS1 [2]) of the same sequence?
Its value is “attenuated”.
